Measured values reported in article PMC4725768.

How the values were obtained:
[1] = molecular target: A391E EC+TM FGFR3 construct (human)
[2] = molecular target: EC+TM (A374I-G375I-S378I) FGFR3 mutant (human)
[3] = molecular target: EC+TM (L377I-G380I-A391I) FGFR3 mutant (human)
[4] = molecular target: FGFR1 EC+TM-(GGS)5-YFP / FGFR1 EC+TM-(GGS)5-mCherry (human)
[5] = molecular target: FGFR3 EC+TM-(GGS)5-YFP / FGFR3 EC+TM-(GGS)5-mCherry (human)
[6] = molecular target: full-length FGFR3 (human FGFR3 IIIc) fused to YFP or mCherry (human) (UniProt P22607)
Sequence of UniProt P22607 (P22607 23-806): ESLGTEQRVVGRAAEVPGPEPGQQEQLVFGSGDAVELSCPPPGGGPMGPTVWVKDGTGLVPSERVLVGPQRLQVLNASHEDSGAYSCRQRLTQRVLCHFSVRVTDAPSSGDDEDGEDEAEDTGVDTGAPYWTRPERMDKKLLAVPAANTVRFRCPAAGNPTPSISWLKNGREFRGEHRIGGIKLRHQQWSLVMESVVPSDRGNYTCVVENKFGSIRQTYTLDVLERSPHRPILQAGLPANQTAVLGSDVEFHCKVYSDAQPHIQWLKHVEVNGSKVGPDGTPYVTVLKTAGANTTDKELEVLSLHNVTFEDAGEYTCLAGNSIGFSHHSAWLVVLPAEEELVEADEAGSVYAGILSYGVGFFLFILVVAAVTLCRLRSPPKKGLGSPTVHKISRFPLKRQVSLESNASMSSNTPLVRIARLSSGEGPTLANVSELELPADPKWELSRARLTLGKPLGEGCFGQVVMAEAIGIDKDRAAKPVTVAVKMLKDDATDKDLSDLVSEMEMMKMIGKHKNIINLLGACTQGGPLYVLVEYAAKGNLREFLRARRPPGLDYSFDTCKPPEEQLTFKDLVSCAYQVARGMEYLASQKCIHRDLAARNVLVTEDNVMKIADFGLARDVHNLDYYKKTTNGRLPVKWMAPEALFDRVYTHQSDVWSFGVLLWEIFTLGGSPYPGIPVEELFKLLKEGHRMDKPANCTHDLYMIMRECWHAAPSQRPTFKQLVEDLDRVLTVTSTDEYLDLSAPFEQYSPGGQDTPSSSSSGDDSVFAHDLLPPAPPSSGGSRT

intrinsic FRET of the EC+TM FGFR3 A391E dimer (QI-FRET in vesicles) at saturating fgf1 [1]	intrinsic FRET of the EC+TM FGFR3 A374I-G375I-S378I dimer (QI-FRET in vesicles) at saturating fgf1 [2]	intrinsic FRET of the EC+TM FGFR3 L377I-G380I-A391I dimer (QI-FRET in vesicles) at saturating fgf1 [3]	intrinsic FRET of the EC+TM FGFR1 dimer (QI-FRET in vesicles) at saturating fgf1 (5 μg ml^−1) [4]	intrinsic FRET of the EC+TM FGFR3 dimer (QI-FRET in vesicles) at saturating fgf1 (5 μg ml^−1) [5]	fold increase of full-length FGFR3 phosphorylation (western blot, anti-phospho-Tyr) at saturating fgf1 over no ligand [6] [fold]	intrinsic FRET of the EC+TM FGFR3 A391E dimer (QI-FRET in vesicles) at saturating fgf2 [1]	intrinsic FRET of the EC+TM FGFR3 A374I-G375I-S378I dimer (QI-FRET in vesicles) at saturating fgf2 [2]	intrinsic FRET of the EC+TM FGFR3 L377I-G380I-A391I dimer (QI-FRET in vesicles) at saturating fgf2 [3]	intrinsic FRET of the EC+TM FGFR1 dimer (QI-FRET in vesicles) at saturating fgf2 (5 μg ml^−1) [4]	intrinsic FRET of the EC+TM FGFR3 dimer (QI-FRET in vesicles) at saturating fgf2 (5 μg ml^−1) [5]	fold increase of full-length FGFR3 phosphorylation (western blot, anti-phospho-Tyr) at saturating fgf2 over no ligand [6] [fold]	Substance
0.75	0.63	0.52	0.55	0.55	1.5 to 3	–	–	–	–	–	–	human fgf1 (from UniProt P05230 16-155) (ligand)
–	–	–	–	–	–	0.78	0.74	0.53	0.73	0.72	2 to 4	human fgf2 (from UniProt P09038 143-288) (ligand)
